In PMC6915754, “Protein components of ribonucleoprotein granules from Drosophila germ cells oligomerize and show distinct spatial organization during germline development” (Scientific Reports, 2019):

Assays:
[1] = molecular target: T1, GFP-Aub (functional and methylated, from fly ovaries) (Drosophila, UniProt O76922 1-866, methylated (sDMAs), positions not given); assay: pull-down; GFP-Aub from fly ovaries held on anti-GFP agarose beads; partially purified His-SUMO Tud domains added; 50 µl reactions, 4 °C, 30 min, binding buffer PBS + 0.05% IGEPAL CA-630; 4 washes; bound domains detected by anti-His-tag western blot; conditions: both partners purified
T1 construct: Aubergine (Aub), Piwi family protein, Drosophila; full-length; also called full-length Aub; source: purified from fly ovaries with anti-GFP beads
T1 sequence (looked up): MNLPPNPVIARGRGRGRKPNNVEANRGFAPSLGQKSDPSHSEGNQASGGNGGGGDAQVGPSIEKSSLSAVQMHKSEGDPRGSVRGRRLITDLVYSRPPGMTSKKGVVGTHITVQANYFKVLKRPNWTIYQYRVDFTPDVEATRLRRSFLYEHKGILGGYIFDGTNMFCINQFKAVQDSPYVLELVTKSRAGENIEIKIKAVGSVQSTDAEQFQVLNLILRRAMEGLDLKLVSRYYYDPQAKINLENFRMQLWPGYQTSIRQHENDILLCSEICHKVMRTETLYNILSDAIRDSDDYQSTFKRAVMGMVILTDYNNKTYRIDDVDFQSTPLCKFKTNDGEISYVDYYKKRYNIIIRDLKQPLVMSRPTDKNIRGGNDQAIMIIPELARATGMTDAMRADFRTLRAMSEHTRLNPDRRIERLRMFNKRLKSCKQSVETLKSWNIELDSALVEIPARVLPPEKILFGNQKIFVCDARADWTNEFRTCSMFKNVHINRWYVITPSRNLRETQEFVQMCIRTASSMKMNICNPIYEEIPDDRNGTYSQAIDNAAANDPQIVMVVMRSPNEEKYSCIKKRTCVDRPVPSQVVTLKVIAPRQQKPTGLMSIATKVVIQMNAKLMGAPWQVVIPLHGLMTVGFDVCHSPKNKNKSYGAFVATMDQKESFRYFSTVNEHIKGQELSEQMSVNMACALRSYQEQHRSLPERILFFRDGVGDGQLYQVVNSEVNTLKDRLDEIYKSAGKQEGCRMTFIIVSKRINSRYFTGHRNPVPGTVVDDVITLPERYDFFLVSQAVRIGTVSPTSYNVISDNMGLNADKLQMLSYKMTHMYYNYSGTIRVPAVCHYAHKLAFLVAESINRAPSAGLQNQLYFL

[2] = molecular target: the molecule itself; assay: native gel or EMSA; blue native PAGE (BN-PAGE), NativePAGE 3-12% Bis-Tris gels, of Aub purified by anti-c-Myc immunoaffinity, several concentrations; western blot with anti-Flag antibody

B1: Tud domain 9 (amino acids 1976-2160 of Tudor) (domain or fragment, Drosophila, UniProt P25823 1976-2160, looked up)
chain: SLAVTTKAIITHVENTSRIYLQFSEKDSLMDIICEKLNGSKLQPKTEKAAVDDMCVVQFADDLEFYRSRILEVLEDDQYKVILIDYGNTTVVDKLYELPQEFTLIKPVAEICSMEPSAIFEKNKALTLTTFDALLDSCKGVVAVEFVNKSASPPVVRLTTKDKRSLKIYEHLQKLVQAELKLIQK
notes: Tudor (Tud) protein, Drosophila, full length 2515 amino acids; Tud domain 9, amino acids 1976-2160; pET SUMO vector; source: E. coli BL21 (DE3), partially purified (Ni-NTA); not shown: His, N-terminal, kept
binding result [1]: binds

B2: Tud domain 1 (amino acids 1-217 of Tudor) (domain or fragment, Drosophila, UniProt P25823 1-217, looked up)
chain: MNGQARIALPSKVDLYITHVDHVGPYLKVYGHVNRDAASLISERIRNLLPTCFAIEPSWSVERQQALLIPGTFCIFKNINGPAPGDVEYRRIRVVSADLEGQSMRAEIDFVDFGYKRTVDSHDLMFPKQPKLLQNIPLHCFQYIVLGICSEWDQTDLAEVRRLVVNQIVKITVEPTQICDQKFASLRWKDFELNEFLVQQKQIGVSVDKQLMMDHCK
notes: Tudor (Tud) protein, Drosophila, full length 2515 amino acids; Tud domain 1, amino acids 1-217; pET SUMO vector; source: E. coli BL21 (DE3), partially purified (Ni-NTA); not shown: His, N-terminal, kept
binding result [1]: binds

B3: Tud domain 3 (amino acids 592-772 of Tudor) (domain or fragment, Drosophila, UniProt P25823 592-772, looked up)
chain: QLENDDAVEIRFIDSPSNFYVQKVANIGKFEQLMDEMFSYYNANQRVPDQLILGAPCIVKCDQEWYRAEILRVDDSVIVRHVDFGYEQNVKRHLIGHIAEKHLEMPRQAIKCCLKGFENSELSEDKITDQFEMLAEESNIRRRTFSVRIFRIEPDGLNVVNLLAKNLNVMKKLYKLSMPFE
notes: Tudor (Tud) protein, Drosophila, full length 2515 amino acids; Tud domain 3, amino acids 592-772; pET SUMO vector; source: E. coli BL21 (DE3), partially purified (Ni-NTA); not shown: His, N-terminal, kept
binding result [1]: binds

B4: Tud domain 11 (amino acids 2335-2515 of Tudor) (domain or fragment, Drosophila, UniProt P25823 2335-2515, looked up)
chain: STVTGVQKPLEAELHNCVVVQFDGPMSFYVQMESDVPALEQMTDKLLDAEQDLPAFSDLKEGALCVAQFPEDEVFYRAQIRKVLDDGKCEVHFIDFGNNAVTQQFRQLPEELAKPARYSRHCELDASTISKCDAALLQSFIDTRFSETFQVEILATKGTGTHVVRLFYQSKNISEKLQECQ
notes: Tudor (Tud) protein, Drosophila, full length 2515 amino acids; Tud domain 11, amino acids 2335-2515; pET SUMO vector; source: E. coli BL21 (DE3), partially purified (Ni-NTA); not shown: His, N-terminal, kept
binding result [1]: binds

B5: Tud domain 6 (amino acids 1299-1484 of Tudor) (domain or fragment, Drosophila, UniProt P25823 1299-1484, looked up)
chain: SFICPYPVVLSSFQALVVYTAKPYRVYVQPQAIVPSMQTLLDNMYEHYKAKGDSLKKFDVGQICAVRSSDGNWYRARISGKDSNAACFEVFYIDYGNTEEIKRDDIKALDAKFYEHASGFAVEINLPIGRPSNDTKLKARISEILEEKVVTIKSIEVRRSHLIADVILENNQSVIDLLKAEKLVPG
notes: Tudor (Tud) protein, Drosophila, full length 2515 amino acids; Tud domain 6, amino acids 1299-1484; pET SUMO vector; source: E. coli BL21 (DE3), partially purified (Ni-NTA); not shown: His, N-terminal, kept
binding result [1]: binds

B6: methylated Aubergine (sDMA-Aub) (natural protein, Drosophila, UniProt O76922 1-866, looked up)
chain: MNLPPNPVIARGRGRGRKPNNVEANRGFAPSLGQKSDPSHSEGNQASGGNGGGGDAQVGPSIEKSSLSAVQMHKSEGDPRGSVRGRRLITDLVYSRPPGMTSKKGVVGTHITVQANYFKVLKRPNWTIYQYRVDFTPDVEATRLRRSFLYEHKGILGGYIFDGTNMFCINQFKAVQDSPYVLELVTKSRAGENIEIKIKAVGSVQSTDAEQFQVLNLILRRAMEGLDLKLVSRYYYDPQAKINLENFRMQLWPGYQTSIRQHENDILLCSEICHKVMRTETLYNILSDAIRDSDDYQSTFKRAVMGMVILTDYNNKTYRIDDVDFQSTPLCKFKTNDGEISYVDYYKKRYNIIIRDLKQPLVMSRPTDKNIRGGNDQAIMIIPELARATGMTDAMRADFRTLRAMSEHTRLNPDRRIERLRMFNKRLKSCKQSVETLKSWNIELDSALVEIPARVLPPEKILFGNQKIFVCDARADWTNEFRTCSMFKNVHINRWYVITPSRNLRETQEFVQMCIRTASSMKMNICNPIYEEIPDDRNGTYSQAIDNAAANDPQIVMVVMRSPNEEKYSCIKKRTCVDRPVPSQVVTLKVIAPRQQKPTGLMSIATKVVIQMNAKLMGAPWQVVIPLHGLMTVGFDVCHSPKNKNKSYGAFVATMDQKESFRYFSTVNEHIKGQELSEQMSVNMACALRSYQEQHRSLPERILFFRDGVGDGQLYQVVNSEVNTLKDRLDEIYKSAGKQEGCRMTFIIVSKRINSRYFTGHRNPVPGTVVDDVITLPERYDFFLVSQAVRIGTVSPTSYNVISDNMGLNADKLQMLSYKMTHMYYNYSGTIRVPAVCHYAHKLAFLVAESINRAPSAGLQNQLYFL
modifications: symmetrically dimethylated arginines (sDMAs), positions not given
notes: Aubergine (Aub), Piwi family protein, Drosophila; full-length; monomer ~100 kDa; Oligomers migrate at 500-700 kDa; also called sDMA-containing Aub; source: Sf9 or TriEx Sf9 cells, baculovirus, co-expressed with Dart5(Csul) and Vls; for SEC also Ni-NTA); not shown: 3xFLAG, N-terminal, kept
binding result [2]: binds

B7: unmethylated Aubergine (natural protein, Drosophila, UniProt O76922 1-866, looked up)
chain: MNLPPNPVIARGRGRGRKPNNVEANRGFAPSLGQKSDPSHSEGNQASGGNGGGGDAQVGPSIEKSSLSAVQMHKSEGDPRGSVRGRRLITDLVYSRPPGMTSKKGVVGTHITVQANYFKVLKRPNWTIYQYRVDFTPDVEATRLRRSFLYEHKGILGGYIFDGTNMFCINQFKAVQDSPYVLELVTKSRAGENIEIKIKAVGSVQSTDAEQFQVLNLILRRAMEGLDLKLVSRYYYDPQAKINLENFRMQLWPGYQTSIRQHENDILLCSEICHKVMRTETLYNILSDAIRDSDDYQSTFKRAVMGMVILTDYNNKTYRIDDVDFQSTPLCKFKTNDGEISYVDYYKKRYNIIIRDLKQPLVMSRPTDKNIRGGNDQAIMIIPELARATGMTDAMRADFRTLRAMSEHTRLNPDRRIERLRMFNKRLKSCKQSVETLKSWNIELDSALVEIPARVLPPEKILFGNQKIFVCDARADWTNEFRTCSMFKNVHINRWYVITPSRNLRETQEFVQMCIRTASSMKMNICNPIYEEIPDDRNGTYSQAIDNAAANDPQIVMVVMRSPNEEKYSCIKKRTCVDRPVPSQVVTLKVIAPRQQKPTGLMSIATKVVIQMNAKLMGAPWQVVIPLHGLMTVGFDVCHSPKNKNKSYGAFVATMDQKESFRYFSTVNEHIKGQELSEQMSVNMACALRSYQEQHRSLPERILFFRDGVGDGQLYQVVNSEVNTLKDRLDEIYKSAGKQEGCRMTFIIVSKRINSRYFTGHRNPVPGTVVDDVITLPERYDFFLVSQAVRIGTVSPTSYNVISDNMGLNADKLQMLSYKMTHMYYNYSGTIRVPAVCHYAHKLAFLVAESINRAPSAGLQNQLYFL
notes: Aubergine (Aub), Piwi family protein, Drosophila; full-length; without sDMAs; source: Sf9 cells lacking dart5/vls bacmid, baculovirus; not shown: 3xFLAG, N-terminal, kept
binding result [2]: binds

B8: Tud domain 4 (amino acids 1002-1192 of Tudor) (domain or fragment, Drosophila, UniProt P25823 1002-1192, looked up)
chain: SLDKPYALQEMKTPSKEAASLSWWLSPFQFYIVPKSVSAKYDNIMRDMREFYRQKQHQPLQLKVGSTVVVRQRKDNAILRATVTACNHMMRKYRVFCVDTGSLITVTSEDIWQLEQRFADPPCMAHRCSFHSVVTNYDPLYIVDRMETFVPVNAKVDCEFVSKEKSNQGSNTSSTCSYTVNIFVNGASLRD
notes: Tudor (Tud) protein, Drosophila, full length 2515 amino acids; Tud domain 4, amino acids 1002-1192; pET SUMO vector; source: E. coli BL21 (DE3), partially purified (Ni-NTA); not shown: His, N-terminal, kept
binding result [1]: binds
